Experimental data as given in paper PMC11284795.

biological target: human beta-klotho (KLB) on HEK293 cells (human) (UniProt Q86Z14)

Sequence of FGF21 analog 22: Ala[Gln121, Leu168, Cys180]FGF21 with a C16 fatty diacid side chain on 180C (Q9NSA1 other isoform, or with tags, fused parts or gaps): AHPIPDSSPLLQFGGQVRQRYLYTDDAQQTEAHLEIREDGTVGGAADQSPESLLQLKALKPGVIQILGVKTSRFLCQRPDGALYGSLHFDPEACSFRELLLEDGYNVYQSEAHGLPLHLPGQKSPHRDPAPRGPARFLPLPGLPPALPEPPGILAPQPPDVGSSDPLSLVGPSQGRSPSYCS
Sequence of FGF21 (0) (Q9NSA1 29-209): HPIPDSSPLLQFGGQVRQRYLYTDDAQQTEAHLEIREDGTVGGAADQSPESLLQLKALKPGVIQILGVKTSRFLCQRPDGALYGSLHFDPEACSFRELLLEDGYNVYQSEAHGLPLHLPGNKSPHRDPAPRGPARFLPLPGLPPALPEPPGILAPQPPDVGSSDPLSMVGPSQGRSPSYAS
Sequence of FGF21 analog 8 (-1A, 121Q, 168L, 171C; cysteamine on 171C) (Q9NSA1 other isoform, or with tags, fused parts or gaps): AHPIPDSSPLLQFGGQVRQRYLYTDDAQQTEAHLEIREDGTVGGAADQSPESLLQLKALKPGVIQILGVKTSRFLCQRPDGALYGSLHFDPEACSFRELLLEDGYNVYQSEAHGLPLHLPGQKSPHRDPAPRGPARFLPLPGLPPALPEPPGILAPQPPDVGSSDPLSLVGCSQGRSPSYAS
Sequence of FGF21 analog 7 (-1A, 121Q, 168L, 170C; cysteamine on 170C) (Q9NSA1 other isoform, or with tags, fused parts or gaps): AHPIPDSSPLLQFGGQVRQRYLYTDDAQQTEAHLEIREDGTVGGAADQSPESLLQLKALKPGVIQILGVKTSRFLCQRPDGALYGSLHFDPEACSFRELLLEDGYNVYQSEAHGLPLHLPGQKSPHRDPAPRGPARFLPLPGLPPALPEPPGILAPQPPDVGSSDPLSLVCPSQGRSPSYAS
Sequence of FGF21 analog 19 (-1A, 121Q, 168L, 181C; cysteamine on 181C) (Q9NSA1 other isoform, or with tags, fused parts or gaps): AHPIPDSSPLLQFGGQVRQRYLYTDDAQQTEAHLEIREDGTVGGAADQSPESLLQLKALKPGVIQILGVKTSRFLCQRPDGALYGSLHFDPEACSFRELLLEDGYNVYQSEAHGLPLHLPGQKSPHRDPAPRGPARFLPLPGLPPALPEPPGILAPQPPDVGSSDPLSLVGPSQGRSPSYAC
Sequence of FGF21 analog 6 (-1A, 121Q, 167C, 168L; cysteamine on 167C) (Q9NSA1 other isoform, or with tags, fused parts or gaps): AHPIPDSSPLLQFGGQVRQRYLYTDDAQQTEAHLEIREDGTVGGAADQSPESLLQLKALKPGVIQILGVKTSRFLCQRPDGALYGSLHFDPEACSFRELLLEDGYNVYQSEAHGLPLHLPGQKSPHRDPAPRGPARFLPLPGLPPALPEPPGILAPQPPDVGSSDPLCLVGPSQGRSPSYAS
Sequence of FGF21 analog 13 (-1A, 121Q, 168L, 178C; cysteamine on 178C) (Q9NSA1 other isoform, or with tags, fused parts or gaps): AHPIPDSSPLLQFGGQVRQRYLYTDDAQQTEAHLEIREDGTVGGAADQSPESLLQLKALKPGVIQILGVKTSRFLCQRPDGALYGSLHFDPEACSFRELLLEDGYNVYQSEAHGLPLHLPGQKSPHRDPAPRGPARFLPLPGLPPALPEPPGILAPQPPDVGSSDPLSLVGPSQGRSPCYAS
Sequence of FGF21 analog 12 (-1A, 121Q, 168L, 176C; cysteamine on 176C) (Q9NSA1 other isoform, or with tags, fused parts or gaps): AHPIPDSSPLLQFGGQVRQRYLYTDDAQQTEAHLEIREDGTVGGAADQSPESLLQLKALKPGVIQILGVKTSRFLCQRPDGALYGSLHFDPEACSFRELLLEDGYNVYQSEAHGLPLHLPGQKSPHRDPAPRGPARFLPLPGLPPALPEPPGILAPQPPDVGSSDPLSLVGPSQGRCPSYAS
Sequence of FGF21 analog 3 (-1A, 121Q) (Q9NSA1 28-209 N149Q): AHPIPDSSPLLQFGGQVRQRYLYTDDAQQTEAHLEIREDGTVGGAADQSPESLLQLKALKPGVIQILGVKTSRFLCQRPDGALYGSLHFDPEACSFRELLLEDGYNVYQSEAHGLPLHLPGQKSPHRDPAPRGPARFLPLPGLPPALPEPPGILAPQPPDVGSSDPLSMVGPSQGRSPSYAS
Sequence of Met-FGF19 (25) (O95750 other isoform, or with tags, fused parts or gaps): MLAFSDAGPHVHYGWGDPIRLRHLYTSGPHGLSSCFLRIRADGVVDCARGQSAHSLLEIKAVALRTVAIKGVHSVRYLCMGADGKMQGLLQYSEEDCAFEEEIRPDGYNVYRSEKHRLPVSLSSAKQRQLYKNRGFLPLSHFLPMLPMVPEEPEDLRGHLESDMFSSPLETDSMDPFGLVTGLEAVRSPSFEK
Sequence of FGF21 analog 10 (-1A, 121Q, 168L, 174C; C18 fatty diacid on 174C) (Q9NSA1 other isoform, or with tags, fused parts or gaps): as the sequence (Q9NSA1 28-209 N149Q) above, with M169L, G175C counted along it
Sequence of FGF21 analog 11 (-1A, 121Q, 168L, 174C; cysteamine on 174C) (Q9NSA1 other isoform, or with tags, fused parts or gaps): as the sequence (Q9NSA1 28-209 N149Q) above, with M169L, G175C counted along it
Sequence of FGF21 analog 9 (-1A, 121Q, 168L, 172C; cysteamine on 172C) (Q9NSA1 other isoform, or with tags, fused parts or gaps): as the sequence (Q9NSA1 28-209 N149Q) above, with M169L, S173C counted along it
Sequence of FGF21 analog 14 (-1A, 121Q, 168L, 179C; cysteamine on 179C) (Q9NSA1 other isoform, or with tags, fused parts or gaps): as the sequence (Q9NSA1 28-209 N149Q) above, with M169L, Y180C counted along it
Sequence of FGF21 analog 5 (-1A, 71C, 121Q, 168L; C18 fatty diacid on 71C) (Q9NSA1 other isoform, or with tags, fused parts or gaps): as the sequence (Q9NSA1 28-209 N149Q) above, with S72C, M169L counted along it
Sequence of FGF21 analog 2 (-1A) (Q9NSA1 28-209): as the sequence (Q9NSA1 28-209 N149Q) above, with Q122N counted along it

Substance	potency (EC50) of ERK phosphorylation in HEK293 cells transfected with human KLB, without HSA (with 0.1 and 1.0% HSA: 1.8 and 2.1 nM, Table 3)	potency (EC50) of ERK phosphorylation in HEK293 cells transfected with human KLB, without HSA
cysteamine protected Ala[Gln121, Leu168, Cys180]FGF21 (16) (from UniProt Q9NSA1 29-209) (ligand)	2.5 nM	
FGF21 analog 3 (-1A, 121Q) (from UniProt Q9NSA1 29-209) (ligand)		1 nM
FGF21 analog 6 (-1A, 121Q, 167C, 168L; cysteamine on 167C) (from UniProt Q9NSA1 29-209) (ligand)		1.4 nM
FGF21 analog 11 (-1A, 121Q, 168L, 174C; cysteamine on 174C) (from UniProt Q9NSA1 29-209) (ligand)		6.1 nM
FGF21 analog 10 (-1A, 121Q, 168L, 174C; C18 fatty diacid on 174C) (from UniProt Q9NSA1 29-209) (ligand)		1.5 nM
FGF21 analog 19 (-1A, 121Q, 168L, 181C; cysteamine on 181C) (from UniProt Q9NSA1 29-209) (ligand)		24 nM
FGF21 analog 9 (-1A, 121Q, 168L, 172C; cysteamine on 172C) (from UniProt Q9NSA1 29-209) (ligand)		3.3 nM
FGF21 analog 8 (-1A, 121Q, 168L, 171C; cysteamine on 171C) (from UniProt Q9NSA1 29-209) (ligand)		2.2 nM
FGF21 analog 2 (-1A) (from UniProt Q9NSA1 29-209) (ligand)		1.3 nM
FGF21 (0) (from UniProt Q9NSA1 29-209) (ligand)		1 nM
FGF21 analog 7 (-1A, 121Q, 168L, 170C; cysteamine on 170C) (from UniProt Q9NSA1 29-209) (ligand)		3.4 nM
FGF21 analog 12 (-1A, 121Q, 168L, 176C; cysteamine on 176C) (from UniProt Q9NSA1 29-209) (ligand)		160 nM
FGF21 analog 5 (-1A, 71C, 121Q, 168L; C18 fatty diacid on 71C) (from UniProt Q9NSA1 29-209) (ligand)		4.8 nM
FGF21 analog 14 (-1A, 121Q, 168L, 179C; cysteamine on 179C) (from UniProt Q9NSA1 29-209) (ligand)		67 nM
FGF21 analog 13 (-1A, 121Q, 168L, 178C; cysteamine on 178C) (from UniProt Q9NSA1 29-209) (ligand)		90 nM

biological target: human beta-klotho (KLB) on HEK293 cells (human) (UniProt Q86Z14); remark: another data set of the same source

Substance	potency (EC50) of ERK phosphorylation in HEK293 cells transfected with human KLB, 0% HSA
FGF21 analog 23 (-1A, 121Q, 168L, 180C; C20 fatty diacid on 180C) (from UniProt Q9NSA1 29-209) (ligand)	3.8 nM
FGF21 analog 20 (-1A, 121Q, 168L, 180C; C12 fatty diacid on 180C) (from UniProt Q9NSA1 29-209) (ligand)	5.8 nM
FGF21 analog 22: Ala[Gln121, Leu168, Cys180]FGF21 with a C16 fatty diacid side chain on 180C (from UniProt Q9NSA1 29-209) (ligand)	3.5 nM
FGF21 analog 21 (-1A, 121Q, 168L, 180C; C14 fatty diacid on 180C) (from UniProt Q9NSA1 29-209) (ligand)	5.2 nM

biological target: human serum albumin (HSA) (human) (UniProt P02768)

Substance	potency (EC50) of ERK phosphorylation in HEK293/human KLB cells with 0.1 and 1.5% HSA: 47 and 173 nM (3.8 nM without HSA)	potency (EC50) of ERK phosphorylation in HEK293/human KLB cells with 0.1 and 1.0% HSA: 3.7 and 5.2 nM (5.8 nM without HSA); no HSA-dependent reduction of potency	potency (EC50) of ERK phosphorylation in HEK293/human KLB cells with 0.1, 1.0 and 1.5% HSA: 4.2, 52 and 92 nM (3.5 nM without HSA)	potency (EC50) of ERK phosphorylation in HEK293/human KLB cells with 0.1, 1.0 and 1.5% HSA: 4.0, 5.8 and 8.6 nM (5.2 nM without HSA); no HSA-dependent reduction of potency
FGF21 analog 23 (-1A, 121Q, 168L, 180C; C20 fatty diacid on 180C) (from UniProt Q9NSA1 29-209) (ligand)	173 nM			
FGF21 analog 20 (-1A, 121Q, 168L, 180C; C12 fatty diacid on 180C) (from UniProt Q9NSA1 29-209) (ligand)		5.2 nM		
FGF21 analog 22: Ala[Gln121, Leu168, Cys180]FGF21 with a C16 fatty diacid side chain on 180C (from UniProt Q9NSA1 29-209) (ligand)			92 nM	
FGF21 analog 21 (-1A, 121Q, 168L, 180C; C14 fatty diacid on 180C) (from UniProt Q9NSA1 29-209) (ligand)				8.6 nM

biological target: FGFR4/KLB: ectodomain of human FGFR4 fused to Fc, with human beta-klotho (human) (UniProt P22455)

Substance	potency EC50 of ERK phosphorylation in Ba/F3 cells overexpressing human KLB and FGFR4 (chimera with the kinase domain of FGFR1c), 0% HSA
Met-FGF19 (25) (from UniProt O95750 25-216) (ligand)	2.3 nM
